Test results taken from PMC10275869 (Nature Communications, 2023).

B1: 5B3 (human IgG1) (antibody, V domains shown)
VH: EVQLVESGGGLVKPGGSLKLSCAASGFTFSSYDMSWVRQTPEKRLEWVAMISSGGSYSYYPDSVKGRFTISRDNAKNTLYLQMSSLRSEDTAMYYCARQGDYAWFAYWGQGTLVTVSS
VL: DIQMTQSPASQSASLGESVTITCLASQTIGTWLAWYQQKPGKSPQLLIYAATSLADGVPSRFSGSGSGTKFSFKISSLQAEDFVSYYCQQFYSTPFTFGGGTKLEIK
B2: mAb66 (human IgG1) (antibody, V domains shown)
VH: ETGSGGGLVKPGGTLTLTCKASGFTLSSYWMCWVRQAPGKGLELIACLYTNGATTWYASWVNGRFAISRSTSRNTVDLNMTSLTAADTATYFCARGSGSGWSWFNIWGPGTLVTVSS
VL: TGVMTQTPASVEAAVGGTVTIKCQASQNIISSLAWYQQKPGQRPKLLIYYASTLASGVPSRFKGSGSGTQFTLTISDLECADAATYYCQSYYYSGITYGNAFGGGTEVVVK
B3: 12B2 (human IgG1) (antibody, V domains shown)
VH: QVQLKESGPGLVAPSQSLSITCTVSGFSLASYGVHWVRQPPGKGLEWLGVIWTGGSTNYNSALMSRLSINRDNSKSQVFLKLNSLQTDDTAIYYCARDRGYGYGGFAYWGQGTLVTVSA
VL: DIQMTQSPASLSASVGETVTITCRASENIYSYLAWYQHKQGKSPQLLVYNAKSLAEGVPSRFSGSGSGTQFSLKINSLQPEDFGSYYCQHHYGTPWTFGGGTKLEIK
B4: 1F5 (human IgG1) (antibody, V domains shown)
VH: DVQLQESGPGLVKPSQSLSLTCSVTGYSITSDYYWNWIRQFPGNKLEWMGYVTYDGSNNYNPSLKNRISITRDSSKNQFFLKLNSVISEDTATYYCARFGSSYWAMDYWGQGTSLTVSS
VL: QIVLTQSPAIMSASLGEAITLTCSASSSVSYMHWYQQKSGTSPKLLIYSTSNLASGVPSRFSGSGSGTFYSLTISSVEAEDAADYYCHQWYSYPWTFGGGTKLEIK

These binders were tested against LayV F clamp2 (prefusion Langya virus fusion glycoprotein ectodomain stabilised with the clamp2 molecular … (Langya virus (GenBank UUV47205.1), stabilised, N-linked glycans at N65 and N459)) (assay: ELISA). Details: both partners purified.
B1: no binding (tested: 50 μg/mL).
B2: no binding (tested: 50 μg/mL).
B3: no binding (tested: 50 μg/mL).
B4: no binding (tested: 50 μg/mL).

The binders below were run against T1, prefusion clamp2 stabilized NiV F (Nipah virus, strain  (Q9IH63 …, UniProt Q9IH63, stabilised)) (assay: ELISA). Details: both partners purified.
T1 construct: also called Nipah virus F
B1: binds.
B2: binds.
B3: binds.
B4: binds.
